From US20250277022A1 (STAIDSON BEIJING BIOPHARMACEUTICALS, published 2025)

B1: TSLP-01 (antibody, V domains shown)
VH: QVQLQESGPGLVKPSETLSLTCAVSGYSISSGYGWSWIRQPPGKGLEWIGYISYYGSISYNPSLKSRVTISRDTSKNQFSLKLSSVTAADTAVYYCARTNLLYFDSWGQGTLVTVSS
VL: EIVMTQSPATLSLSPGERATLSCRASQSVSNNLAWYQQKPGQAPRLLIYDASSRATGIPARFSGSGSGTDFTLTISSLEPEDFAVYYCQQYSDWPQYTFGQGTKVEIK
notes: also called parent antibody TSLP-01
B2: AMG157 (antibody, V domains shown)
VH: QMQLVESGGGVVQPGRSLRLSCAASGFTFRTYGMHWVRQAPGKGLEWVAVIWYDGSNKHYADSVKGRFTITRDNSKNTLNLQMNSLRAEDTAVYYCARAPQWELVHEAFDIWGQGTMVTVSS
VL: SYVLTQPPSVSVAPGQTARITCGGNNLGSKSVHWYQQKPGQAPVLVVYDDSDRPSWIPERFSGSNSGNTATLTISRGEAGDEADYYCQVWDSSSDHVVFGGGTKLTVLG

Columns and labels:
human TSLP [1] = target: T1, human TSLP (human, UniProt Q969D9 29-159); experiment: cell-based or functional assay
T1 sequence (Q969D9 29-159 R127A/R130S limits assumed): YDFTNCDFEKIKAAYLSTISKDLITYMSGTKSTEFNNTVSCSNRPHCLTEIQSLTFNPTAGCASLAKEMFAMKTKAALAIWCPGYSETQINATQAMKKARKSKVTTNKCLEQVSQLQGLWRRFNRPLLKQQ

human TSLP [2] = target: T1, human TSLP; experiment: ELISA, plate coated with human TSLP, test antibodies as human IgG1
Description: (§1) ELISA Screening: Monoclonal scFv antibodies were selected and subjected to ligand binding assays. The first assay was designed to identify scFv antibodies that bound human TSLP and/or cynomolgus TSLP. Briefly, a 96-well plate was coated with human TSLP or cynomolgus TSLP in PBS at 0.1 μg/well and left overnight at 4° C. Before loading the scFv antibodies, the plates were washed with TBST, blocked for 1-2 hours at 37° C. using 5% milk and washed again with TBST. Each scFv sample was first diluted to 40 μg/mL, and 150 μL was added to the first row of wells. The 40 μg/mL scFv samples were then serially diluted at a 1:3 ratio and added to the remaining wells. After incubating for an hour at 37° C., followed by washing with TBST for 6 times, 100 μl of the secondary antibody (HRP labeled mouse anti-flag (1:2500)) was added to each well. After incubation for an hour under 37° C., the plate was washed for 3 times using TBST. TMB was then added at 100 μL/well and incubated for 10-20 minutes at 37° C. 2 M H₂SO₄ was used to stop the reaction. The ELISA results (OD405) were then analyzed and the binding curves were generated by PRISM.

cynomolgus monkey TSLP [3] = target: T2, cynomolgus monkey TSLP (cynomolgus monkey, UniProt A0A7N9CAT7 29-159); experiment: ELISA, plate coated with cynomolgus monkey TSLP, test antibodies as human IgG1
T2 construct: also called cynomolgus TSLP; recombinant cynomolgus monkey TSLP
T2 sequence (A0A7N9CAT7 entry or part of it): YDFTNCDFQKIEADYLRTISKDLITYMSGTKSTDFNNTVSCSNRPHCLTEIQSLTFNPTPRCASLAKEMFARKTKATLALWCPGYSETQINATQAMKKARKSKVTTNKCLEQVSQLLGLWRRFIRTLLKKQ
Description: as §1

human TSLP [4] = target: T1, human TSLP; experiment: ELISA, biotin labeled full length TSLP on streptavidin plate; full length isoform TSLP, not short isoform
Description: Binding of anti-TSLP antibodies to short form TSLP was determined using an ELISA method. […] A rabbit serum was used as a negative control. Briefly, a 96-well plate was coated with 100 μl of 1 μg/mL streptavidin overnight. The plates were washed with PBST, then 100 μl of 1 μg/ml biotin labeled short TSLP or long TSLP was added to the plates, incubated at 37° C. for 1 hour. […] After incubating the plates for an hour at 37° C., followed by washing with PBST for 6 times, the secondary antibody anti-human-Fc-HRP or anti-rabbit-Fc-AP was added to each well. After incubation for an hour under 37° C., the plate was washed for 3 times using PBST. TMB or pNPP was then added at 100 μL/well and incubated for 10-20 minutes at room temperature. 2 M H₂SO₄ or 3 M NaOH was used to stop the reaction. The ELISA results were then analyzed and the binding curves were generated by GraphPad Prism 5 software (GraphPad Software).

cynomolgus monkey TSLP [5] = target: T2, cynomolgus monkey TSLP; experiment: ELISA, plate coated with cynomolgus monkey TSLP
cynomolgus monkey TSLP [6] = target: T2, cynomolgus monkey TSLP; experiment: solution equilibrium titration, MSD electrochemiluminescence

| Binder | IC50, inhibition of human TSLP-induced Stat5 activation (Stat5-luciferase reporter, Ba/F3 cells with hTSLPR and hIL7Ra) (human TSLP [1]) [µg/mL] | EC50 (read off the curve) (human TSLP [2]) [µg/mL] | EC50 (read off the curve) (cynomolgus monkey TSLP [3]) [µg/mL] | EC50 (human TSLP [4]) [µg/mL] | EC50 (read off the curve) (cynomolgus monkey TSLP [5]) [µg/mL] | Kd (cynomolgus monkey TSLP [6]) [nM] |
| --- | --- | --- | --- | --- | --- | --- |
| B1 | 0.0193 | ~0.03 | ~0.5 | 0.0335 | – | – |
| B2 | – | – | – | – | ~0.5 | 0.0176 |
